The target in data set [1] is T1, His-OsGF14h^SN9816 (rice (Oryza sativa), japonica variety …, UniProt Q2R1D5 1-230).
T1 construct: also called Hap1; source: E. coli Rosetta (DE3), purified (Ni NTA beads)
T1 sequence (looked up): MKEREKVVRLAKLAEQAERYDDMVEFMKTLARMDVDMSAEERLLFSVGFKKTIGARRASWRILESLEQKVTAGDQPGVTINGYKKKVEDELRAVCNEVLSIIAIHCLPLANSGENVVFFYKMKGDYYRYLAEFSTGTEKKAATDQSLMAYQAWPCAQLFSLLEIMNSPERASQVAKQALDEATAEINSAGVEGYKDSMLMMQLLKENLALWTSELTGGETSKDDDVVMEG
Kind of data set: pull-down; GST-OsHOX3 or GST-OsVP1 as bait on GST beads, equal quantities of recombinant proteins in GST pull-down buffer at 4 °C overnight, His-OsGF14h detected by anti-His. The settings on record: both partners purified.

In data set [2] the target is T2, OsHOX3 (Oryza sativa, UniProt Q9XH38 1-229).
T2 sequence: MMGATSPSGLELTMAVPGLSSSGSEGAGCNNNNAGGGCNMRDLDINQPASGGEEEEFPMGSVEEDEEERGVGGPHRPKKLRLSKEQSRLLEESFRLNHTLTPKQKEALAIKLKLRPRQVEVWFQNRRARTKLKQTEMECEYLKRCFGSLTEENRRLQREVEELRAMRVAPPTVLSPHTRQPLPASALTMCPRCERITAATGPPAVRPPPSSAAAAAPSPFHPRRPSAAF
Description: EMSA; without OsGF14h; Chemiluminescent EMSA Kit GS009 (Beyotime) per manufacturer; 6% native polyacrylamide gel; unlabeled competitor 10x and 20x; buffer, pH and temperature not stated. The settings on record: protein: recombinant; tags: GST (pGEX4T-1; N-terminal); chain copies: 2; label: biotin 3' end; blunt.

The values below come from article PMC9522936, “Regain flood adaptation in rice through a 14-3-3 protein OsGF14h” (Nature Communications, 2022).

B1: GST-OsHOX3 (natural protein, rice, UniProt Q0JKX1 1-229, looked up)
chain: T2 sequence
notes: HD-Zip family transcription factor OsHOX3, rice; source: E. coli Rosetta (DE3), purified (GST beads)
B1: the binding result in data set [1] is recorded as “binds”.

B2: OsPYL5 promoter HD-ZIP3 probe (55 bp) (dsDNA)
DNA 1: AATATAAAACGGTGGGAGTATTAATGATTACATAGTCAATTTTATGTTTGCATTA
DNA 2: TAATGCAAACATAAAATTGACTATGTAATCATTAATACTCCCACCGTTTTATATT
Take B2: the binding result in data set [2] was “binds”.
